# Experimental data reported in patent publication US20220112288A1 (published 2022).
# Biological target: T1, Rhesus macaque CD4-HIS (Acro Biosystems, Cat. CD4-C52H7) (rhesus macaque, UniProt P16003 26-390)
# T1 construct: Bought reagent; also called Rhesus CD4; rhesus CD4-HIS; not shown: His tag
# Assay: BLI (Octet Red384); Ab on anti-mouse Fc (AMC) sensor; rhesus CD4-HIS 100/50/25 nM; global 1:1 fit;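 note: antibodies loaded at 10 µg/mL, an unrelated mouse-derived antibody served as internal reference, curves fit over association and dissociation phases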
# T1 sequence (P16003 26-390 limits assumed): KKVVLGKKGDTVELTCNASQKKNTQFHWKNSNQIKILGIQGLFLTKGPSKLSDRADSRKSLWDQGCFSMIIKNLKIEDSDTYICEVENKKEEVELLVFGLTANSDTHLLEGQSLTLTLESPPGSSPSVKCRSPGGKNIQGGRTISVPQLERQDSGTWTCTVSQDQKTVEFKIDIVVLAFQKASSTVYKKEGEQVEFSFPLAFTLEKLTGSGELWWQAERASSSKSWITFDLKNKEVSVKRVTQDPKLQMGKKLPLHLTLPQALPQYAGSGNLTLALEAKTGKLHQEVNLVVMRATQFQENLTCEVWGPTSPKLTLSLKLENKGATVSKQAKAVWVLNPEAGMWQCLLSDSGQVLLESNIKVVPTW
Binder,Kd [nM],Response,koff [s⁻¹],kon [M⁻¹ s⁻¹]
"75110_06D16A (antibody, V domains shown, Tested as antibody purified from AlivaMab Mouse hybridoma supernatant (human variable domains, kappa; mouse Fc, captured on anti-mouse IgG Fc sensors); also called ADS75110 purified AMM Ab) VH: QVQLQQWGAGLLKPSETLSLTCAVYGGSFSGYYWSWIRQPPGKGLEWIGEINHSGSTNYNPSLKSRVTISVVTSKNQFSLKLSSVTAADTAVYYCARVLNWFDPWGQGTLVTVSS VL: DIQMTQSPSSVSASVGDRVTITCRASQDIADWLAWYQQKPGKAPKLLIYAASSFQSGVPSRFSGSGSGTDFTLTISSLQPEDFATYFCQQANSFPYTFGQGTKLEIK",240,0.09,0.022,91000
"75110_07B16A (antibody, V domains shown, Tested as antibody purified from AlivaMab Mouse hybridoma supernatant (human variable domains, kappa; mouse Fc, captured on anti-mouse IgG Fc sensors); also called ADS75110 purified AMM Ab) VH: QVQLQQWGAGLLKPSETLSLTCAVYGGSFSGYYWSWIRQSPGKGLEWIGEINQSGSTNYNPSLKSRVTISVDTSKDQFSLKLSSVTAADTAVYYCARVINWFDSWGQGSLVTVSS VL: DIQMTQSPSSVSASVGDRVTITCRASQGISSWLAWYQQKPGKAPKLLIYDASSFQSGVPSRFSGSGSGTDFTLTISSLQTDDFATYYCQQANSFPYTFGQGTKLEIK",13,0.17,0.0033,250000
"75110_06C16A (antibody, V domains shown, Tested as antibody purified from AlivaMab Mouse hybridoma supernatant (human variable domains, kappa; mouse Fc, captured on anti-mouse IgG Fc sensors); also called ADS75110 purified AMM Ab) VH: QVQLQESGPGLVTPSETLSLSCTVSGGSISDYYWSWIRQPGGKGLEWIGRIYSSGSTNYNPSLKSRVTMSVDTSKNQFSLKLSSVTAADTAVYFCARDREDYYYYGMDVWGQGTTVTVSS VL: DIQMTQSPSSLSASVGDRVTITCQASHDISNYLNWYQQKPGKAPKLLIYAASNLETGVPSRFSGSGSGTDFSFTISSLQPEDIATYYCQQYDHLPLTFGGGTKVEIK",27,0.15,0.002,73000
"75110_06K03A (antibody, V domains shown, Tested as antibody purified from AlivaMab Mouse hybridoma supernatant (human variable domains, kappa; mouse Fc, captured on anti-mouse IgG Fc sensors); also called ADS75110 purified AMM Ab) VH: QVQLQESGPGLVKPSETLSLTCTVSGGSISTYYWSWIRQPAGKGLEWIGRINTSGSTTYNPSLKSRVTMSVDTSKNQFSLKLSSVTAADTAVYYCARELERYYYYGMDVWGQGTTVTVSS VL: DIQMTQSPSSLSASVGDRVTITCQASQDISNYLNWYQQKPGKAPKLLIYYASILETGVPSRFSGSGSGTDFTFTISSLQPEDIATYYCQQYDSLPLTFGGGTKVEIK",7.8,0.13,0.00035,45000
"75110_06G04A (antibody, V domains shown, Tested as antibody purified from AlivaMab Mouse hybridoma supernatant (human variable domains, kappa; mouse Fc, captured on anti-mouse IgG Fc sensors); also called ADS75110 purified AMM Ab) VH: QVQLLESGPGLVKPSETLSLTCTVSGGSISSYYWSWIRQPAGKGLEWIGRIYISGSTNYNPSLKSRVTMSIDTSENQFSLNLSSVTAADTAVYYCARELERPYYYGMDVWGQGTTVTVSS VL: DIQMTQSPSSLSASVGDRVTITCQASQDISNYLNWYQQKPGKAPKLLIYNASTLETGVPSRFSGSGSGTDFTFTISSLQPEDIATYYCQQYDNLPLTFGGGTKVEFK",2.1,0.05,0.0011,510000
"75110_08D24A (antibody, V domains shown, Tested as antibody purified from AlivaMab Mouse hybridoma supernatant (human variable domains, kappa; mouse Fc, captured on anti-mouse IgG Fc sensors); also called ADS75110 purified AMM Ab) VH: QVQLQESGPGLVKPSETLSLTCTVSGGSISGFYWSWIRQPAGKGLEWIGRIYTSENTNYNPSLKSRVTMSVDTSKNQFSLKLSSVTAADTAVYYCARDREGYYYYGMDVWGQGTTVTVSS VL: DIQMTQSPSSLSASVGDRVTITCQASQDISNYLNWYQQKPGKAPKLLIYAASNLETGVPSRFSGSGSGTDFTFTISSLQPEDIATYYCQQYDSLPITFGQGTRLEIK",53,0.05,0.0017,32000
"75110_08M20A (antibody, V domains shown, Tested as antibody purified from AlivaMab Mouse hybridoma supernatant (human variable domains, kappa; mouse Fc, captured on anti-mouse IgG Fc sensors); also called ADS75110 purified AMM Ab) VH: QVQLQESDPGLVKPSETLSLTCTVSGGSISSYYWSWIRQPAGKGLEWIGRIYASGSTNYNPSLKSRVTMSVDTSKNQFSLKLSSVTAADTAVYYCARDREGYYYYGMDVWGQGTTVTVSS VL: DIQMTQSPSSLSASVGDRVTITCQASQDISKYLNWYQQKPGKAPNLLIYAASNLETGVPSRFSGSGSGTDFTFTISSLQPEDIAAYYCQQYDSLPITFGQGTRLEIK",17,0.17,0.0022,130000
"75110_06E14A (antibody, V domains shown, Tested as antibody purified from AlivaMab Mouse hybridoma supernatant (human variable domains, kappa; mouse Fc, captured on anti-mouse IgG Fc sensors); also called ADS75110 purified AMM Ab) VH: QVQLQESGPGLVKPSETLSLTCTVSGGSISNYFWSWIRQPAGKGLEWIGRIYSSGNTNYNPSLKSRVTMSVDTSKNQFSLKLSSVTAADTAVYYCARDREDYYYYGMDVWGQGTTVTVSS VL: DIQMTQSPSSLSASVGDRVTITCQASQDISNYLNWYQQKPGKAPKLLIYGASILETGVPSRFTGSGSGTDFTFTISSLQPEDIATYYCQQYDSLPITFGQGTRLEIK",230,0.1,0.00069,3000
"75110_05L07A (antibody, V domains shown, Tested as antibody purified from AlivaMab Mouse hybridoma supernatant (human variable domains, kappa; mouse Fc, captured on anti-mouse IgG Fc sensors); also called ADS75110 purified AMM Ab) VH: EVQLVESGGGLVQPGGSLRLSCAASGFTFSSYWMSWVRQAPGKGLEWVANINQDGSDKYYVDSVKGRFTISRDNVKNSLYLQINSLRAEDTAVYYCAREGGQWLTLDYWGQGTLVTVSS VL: not shown",7.6,0.31,0.0011,150000
"75110_11D03A (antibody, V domains shown, Tested as antibody purified from AlivaMab Mouse hybridoma supernatant (human variable domains, kappa; mouse Fc, captured on anti-mouse IgG Fc sensors); also called ADS75110 purified AMM Ab) VH: EVQLVESGGGLVQPGGSLRLSCAASGFTFSSYWMSWVRQAPGKGLEWVANINQDGNEKYYVDSVKGRFTISRDNAKNSLFLQMNSLRAEDTAVYYCAREGGQWLALDYWGQGALVTVSS VL: DIQMTQSPSSVSASVGDRVTITCRASQGISSWLAWYQQKPGKAPKFLISGASSLQSGVPSRFSGSGSGTDFTLTISSLQPEDFATYYCQQANSFPWTFGQGTKVEIK",3.5,0.11,0.0018,530000
"75110_12C19A (antibody, V domains shown, Tested as antibody purified from AlivaMab Mouse hybridoma supernatant (human variable domains, kappa; mouse Fc, captured on anti-mouse IgG Fc sensors); also called ADS75110 purified AMM Ab) VH: EVQLVESGGGLVQPGGSLRLSCAASGFTFSSYWMSWVRQAPGKGLEWVANIKEDGSDKYYVDSVKGRFTISRDNAKNSLYLQMNSLRAEDTAVHYCVREGGQWLALDYWGQGTLVTVSS VL: DIQMTQSPSSVSGSVGDRVTITCRASQGISSWLAWYQQKPGKAPKLLIYGASSLQSGVPSRFSGSGSGTDFTLTISSLQPEDFVTYYCQQANSFPWTFGQGTKVEIK",16,0.1,0.0038,240000
"75110_09N20A (antibody, V domains shown, Tested as antibody purified from AlivaMab Mouse hybridoma supernatant (human variable domains, kappa; mouse Fc, captured on anti-mouse IgG Fc sensors); also called ADS75110 purified AMM Ab) VH: EVQLVESGGGLVQPGGSLRLSCAASGFTFSSYWMSWVRQAPGKGLEWVANINEDGSEKYYVDSVKGRFTISRDNAKNSLYLQMNSLRAEDTAVYYCVREGGQWLALDYWGQGTLVTVSS VL: DIQMTQSPSSVSASVGDRVTITCRASQGISSWLAWYQQKPGKAPKLLIYAASSLQSGVPSSFSGSGSGTDFTLTINSLQPEDFATYYCQQANSFPWTFGQGTKVAIK",44,0.14,0.004,92000
"75110_09G15A (antibody, V domains shown, Tested as antibody purified from AlivaMab Mouse hybridoma supernatant (human variable domains, kappa; mouse Fc, captured on anti-mouse IgG Fc sensors); also called ADS75110 purified AMM Ab) VH: EVQLVESGGGLVQPGGSLRLSCAASGFTFSDYWMSWVRQAPGKGLEWVANINQDGSEKYSVDSVKGRFTISRDNAKNSLYLQMNSLRAEDTAIFYCAREGGQWLALDYWGQGTLVTVSS VL: DIQMTQSPSSVSASVGDRVTITCRASQGISSWLAWYQQKPGKAPKLLIYGASSLQSGVPSRFSGSGSGTDFTLTINSLQPEDFTTYYCQQANIFPWTFGQGTKVEIK",36,0.27,0.003,84000
"75110_07H07A (antibody, V domains shown, Tested as antibody purified from AlivaMab Mouse hybridoma supernatant (human variable domains, kappa; mouse Fc, captured on anti-mouse IgG Fc sensors); also called ADS75110 purified AMM Ab) VH: EVQVVESGGGLVQPGGSLRLSCAASGFTFSSYWMSWVRQAPGKGLEWVANIKEEGSEKYYVDSVKGRFTISRDNAKNSLYLQMNSLRAEDTAVYYCVREGGQWLALDYWGQGTLVTVSS VL: DIQMTQSPSSVSGSVGDRVTITCRASQGISSWLAWYQQKPGKAPKLLIFGASSLQSGVPSRFSGSGSGTDFTLTISSLQPEDFATYYCQQANSFPWTFGQGTKVQIK",32,0.15,0.003,94000
"75110_07E04A (antibody, V domains shown, Tested as antibody purified from AlivaMab Mouse hybridoma supernatant (human variable domains, kappa; mouse Fc, captured on anti-mouse IgG Fc sensors); also called ADS75110 purified AMM Ab) VH: EVQLVESGGGLVQPGGSLRLSCAVSGFTFSSYDMHWVRQATGKGLEWVSTIGTAGDTYYPGSVKGRFTISRENAKKFLYLQMNSLRAGDTAVYYCARGGYYYYGMDVWGQGTTVTVSS VL: not shown",2.6,0.02,0.00042,160000
"75110_10N21A (antibody, V domains shown, Tested as antibody purified from AlivaMab Mouse hybridoma supernatant (human variable domains, kappa; mouse Fc, captured on anti-mouse IgG Fc sensors); also called ADS75110 purified AMM Ab) VH: EVQLVESGGGLVQPGGSLRLSCAASGFTFSSYDMHWVRQVTGKGLEWVSTIGTAGDTYYPGSVKGRFTISRENAKNSLYLQMNSLRAGDTAVYYCARGGYYYYGMDVWGQGTTVTVSS VL: EIVLTQSPGTLSLSPGERATLSCRASQSFISSYLAWYQQKPGQAPRLLIYGASSRATGIPDRFSGSGSGTDFTLTISRLDPEDFAVYYCQQSGNSPFTFGPGTKVDVK",8.2,0.07,0.001,130000
"75110_13C07A (antibody, V domains shown, Tested as antibody purified from AlivaMab Mouse hybridoma supernatant (human variable domains, kappa; mouse Fc, captured on anti-mouse IgG Fc sensors); also called ADS75110 purified AMM Ab) VH: EVQLVESGGVLVQPGGSLRLSCAASGFTFSNYDMHWVRQATGKGLEWVSTIGTAGDTYYPGSVKGRFTLSRENAKNSLYLQMHSLRAGDTAVYYCARGAYGYYGMDVWGQGTTVTVSS VL: not shown",3.9,0.05,0.00085,220000

# Biological target: T2, Recombinant human CD4 (R&D Systems, Cat. 10327-CD) (human, UniProt P01730 26-390, limits assumed)
# T2 construct: Soluble analyte in the Octet assay
# Assay: BLI Octet, mAb on anti-mouse Fc sensor, CD4 100/50/25 nM, 1:1 global fit;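 note: antibodies loaded at 10 µg/mL, an unrelated mouse-derived antibody served as internal reference control, association and dissociation phases fitted after Savitzky-Golay smoothing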
Binder,Kd [nM],Response,koff [s⁻¹],kon [M⁻¹ s⁻¹]
"75110_05E13A (antibody, V domains shown, Tested as antibody purified from AlivaMab Mouse hybridoma supernatant (captured by anti-mouse IgG Fc)) VH: EVQLVESGGDLVKPGGSLRLSCAASGFSFSNAWMSWVRQAPGKGLEWVGRVESKTDGGTTDYAAPVKDRFTISRDDSKYTLYLQMNSLKTEDSAVYYCTIGGGFGLELYGFFDYWGQGTLVTVSS VL: DIQMTQSPSTLSASVGDRVTITCRASQSISSWLAWYQQKPGKAPMLLIYKASSLESGVPSRFSGSGSGTEFTLTISSLQPDDFATYYCLQYNSYYTFGQGTKLEIK",2.2,0.37,0.00022,100000
"75110_05G15A (antibody, V domains shown) VH: QVQLQESGPGLVKPSQTLSLTCTVSGGSISSGGYFWSWIRQHPGKGLEWIGCIYYSGSTYYIPSLKSRVTISVDTSKNQFSLKLRSVTAADTAVYYCARDGYDYWYFDLWGRGTLVTVSS VL: not shown",13,0.09,0.0022,170000
